Source: patent US20240002499A1, “ANTI-CLIC1 PROTEIN ANTIBODIES AND THE DIAGNOSTIC AND THERAPEUTIC USES THEREOF” (Universita' Degli Studi di Milano, priority 2020, published 2024)

Assays:
mouse glioblastoma cells = test: Glioblastoma cell growth curves, polyclonal antibody versus tmCLIC1omab; type: cell-based; conditions: exposing cells for 96 hours
Procedure: (§1) The cells were seeded in 24-well plates (20,000 cells/well) and counted after 24, 48, 72 and 96 hours to construct the growth curve. The cells were collected and centrifuged, and the resuspended pellet was diluted 1:1 with Trypan Blue. An automated counter (Countess II, Thermo Fisher Scientific) was used to count the cells. All data were normalized to their controls.
The cells were plated in 24-well multiwell plates at a density of 10,000 cells/cm 2. The number of live and dead cells for each sample was counted after 72 hours with an automated counter (Countess II, Thermo Fisher Scientific), following the same process as used for the growth curves. All data were standardised to the corresponding controls.

human glioblastoma cells [1] = test: Growth curves of human glioblastoma cells in primary culture; type: cell-based
Excerpt: The primary glioblastoma cell lines, already tested for stem cell properties and carcinogenicity, were kindly supplied by Professor T. Florio's laboratory at Genoa University (Genoa, Italy). The cells were obtained from a surgical biopsy performed in the Neurosurgery Department of IRCCS-AOU San Martino IST (Genoa, Italy), from patients who had not received any treatment before the operation. The samples were histologically classified as GB grade IV (according to the WHO classification), and were used after obtaining the patients' informed consent and the approval of the Institutional Ethics Committee (IEC). The cells were cultured in stem cell-permissive medium consisting of Dulbecco's Modified Eagle's Medium (DMEM) and F12-GlutaMAX at the ratio of 1:1, supplemented with 1×B27 (Thermo Fisher Scientific), […] of fibroblast growth factor (FGF, Miltenyi Biotec), […] of human epidermal growth factor (EGF, Miltenyi Biotec) and 1% penicillin/streptomycin (Pen/Strep, […]) (Thermo Fisher Scientific).
as §1

CLIC1 = molecular target: T1, CLIC1 (Homo sapiens, UniProt O00299); test: Whole-cell patch clamp on HEK cells transfected with CLIC1 plasmid; type: cell-based; conditions: HEK cells overexpressing CLIC1; voltage steps from −60 to +80 mV; IAA94 50 μM
T1 construct: expressed in transfected cells; host or cells: HEK cells
Procedure: FIG. 17. Current/voltage relationship of CLIC1 membrane current in whole-cell patch clamp experiments. HEK cells were transfected with CLIC1 plasmid to overexpress the CLIC1 protein. After recording control current (filled cycles; n=5) cells were perfused alternatively with the polyclonal antibody (open triangles; n=7), tmCLIComab (inverse open triangles; n=10) and with 50 μM IAA94 (filled squared; n=11). The whole cells current is expressed as a current density.
The reference sequence of the CLIC1 protein used in the experiments described in the present patent application is filed at UniProt under number UniProtKB—000299 (CLIC1 human), and described in the article Harrop S. J. et al., “Crystal structure of a soluble form of the intracellular chloride ion channel CLIC1 (NCC27) at 1.4-Å Resolution”; The Journal of Biological Chemistry, Vol. 276 No. 48, November 30, pp. 44993-45000 (2001).
The potential was set on the basis of the resting potential of each cell (between 0 and −80 mV). The CLIC1-mediated chlorine currents were isolated from other ion currents by mathematical subtraction of the residual current following perfusion of 100 μM IAA94 dissolved in the external solution.

[2] = test system: Metalloproteinase 7 (MMP7); test: Western blot of Metalloproteinase 7 in COLO201; type: cell-based; conditions: COLO201, 72 h of treatment
human glioblastoma cells [3] = test: Glioblastoma cells pre-treated with antibody, inoculated into the brain of immunodepressed mice, magnetic resonance scan; type: in vivo; conditions: cells incubated 72 hours with antibody before inoculation; scan two months after inoculation
Procedure: In the in vivo experiments, human glioblastoma cells were incubated for 72 hours with tmCLIC1omab antibody before being inoculated into the brain of immunodepressed mice.
Patient-derived neurospheres were mechanically dissociated, resuspended in […], and injected into the caudate nucleus (1 mm posterior, 3 mm left lateral, 3.5 mm deep relative to bregma) of 5-week-old female CD1 nu/nu mice (Charles River, Wilmington, MA). The cells were incubated with the antibody or the control isotype for 72 hours before implantation (10^5 cells) into the brain of immunodeficient mice. The experiments were conducted pursuant to Italian law (Order of the Executive 116/92, as amended), which transposes EU Directive 86/609 (Council Directive 86/609/EEC of 24 Nov. 1986 on the approximation of laws, regulations and administrative provisions of the Member States regarding the protection of animals used for experimental and other scientific purposes).

microglial cells = test: ROS production in cultured microglial cells; type: cell-based, mice; conditions: after addition of β-amyloid and antibody
Procedure: A second functional experiment performed on microglial cells involved measuring the production of reactive oxygen species (ROS), which contribute to creating a highly oxidising environment harmful to the neurones. Once again (FIG. 5), a physiological increase in cytoplasmic ROS was recorded (baseline), with ROS production after addition of β-amyloid, and finally, cell oxidation during the simultaneous presence of amyloid peptide and the tmCLIC1omab antibody.

tmCLIC1 ion channel = molecular target: T2, tmCLIC1 ion channel (Mus musculus, UniProt Q9Z1Q5); test: Whole-cell patch clamp on BV2 microglial cells with β-amyloid; type: cell-based, mice; conditions: whole-cell configuration, perfusion of antibody after β-amyloid
T2 construct: endogenous in cells; host or cells: BV-2 mouse microglial cell line
Excerpt: The microglial cells used (BV-2) originated from an immortalised cell line deriving from C57BL/6 mice and commonly marketed. The culture medium used was RPMI (Thermo Fisher Scientific) with the addition of 10% FBS (Euroclone) and 1% Pen/Strep ([…], Thermo Fisher Scientific).
The microelectrodes were obtained from borosilicate capillaries with a diameter of 1.5 mm. Micropipettes were produced with a P-97 Brown-Flaming puller (Sutter Instruments, Novato, CA), with which the capillaries were forged to a tip diameter of 1-1.5 μm and electrical resistance of 5-8 MΩ.
The perforated patch clamp configuration was used for the whole-cell experiments, employing the antibiotic gramicidin (final concentration in pipette 5 μg/ml) which forms pores in the membrane that are only permeable to monovalent cations; in this way, the cytoplasmic concentration of the chloride ion remains unchanged throughout the experiment. The ion currents were digitised at 5 kHz and filtered at 1 kHz. Clampex 9.2 was used as the data acquisition and analysis programme.
In the time-course experiments, the potential was set on the basis of the resting potential of each cell, and a voltage step of +60 mV was applied every 5 seconds. The current measured is that observed at the end of the voltage step lasting 800 ms. When the amplitude of the current reaches a constant value, the antibody and IAA94 are added in sequence. […]

B1: tmCLIC1omab: IgG1 class antibody containing the heavy chain variable region SEQ ID NO:13 and the light chain variable region SEQ ID NO:14 (antibody, listed as Mus musculus, V domains shown)
VH: EVMLVESGGGLVKPGGSLKLSCAASGFAFSNYAMSWIRQIPEKRLEWVATISTGGSSTFYPDSVKGRFTISRDNAKNTLYLQMSSLRSEDTAMYYCTRHAYEAWFAYWGQGTLVTVSA
VL: QIVLTQSPALMSASPGEKVTMTCSASSSVSYMYWYQQRPRSSPKPWIYLTSTLASGVPTRFSGSGSGTSYSLTISSMEAEDAATYYCQQWNSHPLTFGSGTKLEIK
percentage of cell death (mouse glioblastoma cells): 15%
growth rate compared with Clic1−/− knockout cells (human glioblastoma cells [1]; glioblastoma cells, FIG. 9): the same growth rate
cell growth (growth curve) (human glioblastoma cells [1]; primary culture, 4-day period): inhibited cell growth
inhibition of CLIC1 ionic whole-cell current (CLIC1): matched only by tmCLIC1omab
expression of Metalloproteinase 7 [2]: mainly abolished
tumour mass on magnetic resonance scan (human glioblastoma cells [3]): much smaller mass
ROS production (microglial cells): falls to the control level
reduction of membrane current increased by β-amyloid peptide (tmCLIC1 ion channel): about fourfold
